Assay: soluble on expression in E. coli; label from the status in PepcDB or PDB records

| Sequence | soluble on expression in E. coli |
| --- | --- |
| MAISKLFFAYFHKNEKPFKMLCLPLLPLKNVINQMSFESVWRLSKTSRKMYEKIKNVKKSIYKIVIDNRFEYNIIYPRFKTRILRFEKKSDFVSVYNEMGTNKEITASVYLKFSVDFWIELFYKLDKRGPGKLRSSVYKLNHLKKRLKYLNRFDELFSIKHVDLVIDKYKLFGDSISHPLFQKCDYMEIVGNTSYISNNEMNFVLNNFKLKNGLLTNCLIAEDFDVTAMQQIPRLVIFNAQHITVEDLIKMDCETIKLCYHQFKPRHINQLLHHWLSGEMPKLRRFRLNFYCDTTWIGVVLSGIEHSKWDGQRRAKFFRDGIESIDCGNGFDIERNDGLLATFSSLEDSIDFVVWGNISAL | not soluble |
| MAKEFGRPQRVAQEMQKEIALILQREIKDPRLGMMTTVSGVEMSRDLAYAKVYVTFLNDKDEDAVKAGIKALQEASGFIRSLLGKAMRLRIVPELTFFYDNSLVEGMRMSNLVTSVVKHDEERRVNPDDSKEDLEHHHHHH | soluble |
| MAKEKKRGFFSWLGFGQKEQTPEKETEVQNEQPVVEEIVQAQEPVKASEQAVEEQPQAHTEAEAETFAADVVEVTEQVAESEKAQPEAEVVAQPEPVVEETPEPVAIEREELPLPEDVNAEAVSPEEWQAEAETVEIVEAAEEEAAKEEITDEELETALAAEAAEEAVMVVPPAEEEQPVEEIAQEQEKPTKEGFFARLKRSLLKTKENLGSGFISLFRGKKIDDDLFEELEEQLLIADVGVETTRKIITNLTEGASRKQLRDAEALYGLLKEEMGEILAKVDEPLNVEGKAPFVILMVGVNGVGKTTTIGKLARQFEQQGKSVMLAAGDTFRAAAVEQLQVWGQRNNIPVIAQHTGADSASVIFDAIQAAKARNIDVLIADTAGRLQNKSHLMEELKKIVRVMKKLDVEAPHEVMLTIDASTGQNAVSQAKLFHEAVGLTGITLTKLDGTAKGGVIFSVADQFGIPIRYIGVGERIEDLRPFKADDFIEALFARED | soluble |
| MAKEWFTVKECLGLPGFPGSEPAVRERLYKYSEGKEGVRRKRVKSKAEEFHISVFPLYVHRYLDDSGEEPTPEPISLQEAEPEDIWEMMFRLLTPEQRKQVTGRFKVRGMKAVFPFLFDDTPPR | not soluble |
| MAKGTIKTNTPPPAPVVGPPGKSAKYRVKHTITVMSGKGGVGKSTVAVNLAVSLAKKGLKVGLIDADINGPDDPKLLGVEDLKLYADDDGIIPAETKYGVKVVSMGFLLPSQDTPVIWRGSLMHKAIQQFLEDVSWKDTDYVVLDMPPGTGDVALSVAQLVPESNGVVIVVTPQDVALLDAKKAINFARQLKLPIFGIIENMSGFVCPHCGNVTYIFKEGGGEKSAKEYNVPFLGKIPLVPEIADNGDKGIPAVEINDTIKSIFNDIADKILKQILGENVKTEALEHHHHHH | not soluble |
| MAKGTKYVSKVPDEHGFIEWSTEENLIWQELFTRQIACIKDKACDEYHEGLAKLNLPTDRIPQLDEVSKVLKVSTGWECYPVPALIGFGEFFRLLSEKKFPVATFIRSREEMDYLQEPDIFHEIFGHCPLLTNSSFANYTEAYGKMGLNATKEQRVFLARLYWFTIEFGLLDTPKGLRIYGGGVLSSPGETDYAMNNTDVDRKPFDILDVLRTPYRIDIMQPIYYMLTKVSDLDEIRKFEVDDIMELVAQAEALGLHEAKFPVKKASLEHHHHHH | soluble |
| MAKLLYVQTSGIDTPERLYAPFVLAMTAKAMGDDAIIYFVIKGVTVVKKDNAEKIKMGNFPPLSELMKQARESGVEMMVCDRSSELLGIDKGEIVDGVKIVGAATLNQLVLEADGVLYF | not soluble |
| MAKLVTENISKRFKNQDVLKHINITLENNEVYGLLGINGAGKTTLMKIICGILQQDSGEIKLDNRPMTRNDLHKVGSLIETPATYNHLSAQDNLKIVCLNESVDFSEINSVLSLVNLNVDKKKKVKDFSLGMKQRLGIAMALIKKPEILVLDEPSNGLDPYGIQELRELLKLLTEQGTSIIISSHILSEIQVLADHIGIIHEGELKYQQRNNKDENLEEIFFKITKGDYK | not soluble |
| MAKLYFYYSAMNAGKTTTLLQSAHNYRERGMRTLILTPKLDHRAGSGVVASRIGLRADGRIFERDTELQQLVERDIHNDGALHCVLVDEAQFLSRAQVWQLSEVVDRLRIPVLCYGLRTDFRGELFEGSQFLLAWADELEEIKTICHSGSKATMTVRVDAHGHAVQDGPQVEIGGNERYVSVSRAEFKKIMRGEGRIDPLQIALPLPVALEHHHHHH | not soluble |

Source: the DeepSol protein solubility set
